Laboratory results published in patent publication US20220372125A1 (ASLAN PHARMACEUTICALS PTE, published 2022).
One block for each binder: values may come before it.

Key:
[1] = biological target: T1, Mammalian expressed extracellular human RON protein (Gly25 to Thr957) with His-tag (human, UniProt Q04912 25-957); test: KinExA, RON-HIS; 95% Confidence Level 9.65 x 105 to 1.60 x 106
T1 construct: Expressed in ExpiCHO cells, purified on nickel; Position of the His-tag is told inconsistently; Written as one chain; also called RON ECD; RON ECD antigen; not shown: His-tag
T1 sequence: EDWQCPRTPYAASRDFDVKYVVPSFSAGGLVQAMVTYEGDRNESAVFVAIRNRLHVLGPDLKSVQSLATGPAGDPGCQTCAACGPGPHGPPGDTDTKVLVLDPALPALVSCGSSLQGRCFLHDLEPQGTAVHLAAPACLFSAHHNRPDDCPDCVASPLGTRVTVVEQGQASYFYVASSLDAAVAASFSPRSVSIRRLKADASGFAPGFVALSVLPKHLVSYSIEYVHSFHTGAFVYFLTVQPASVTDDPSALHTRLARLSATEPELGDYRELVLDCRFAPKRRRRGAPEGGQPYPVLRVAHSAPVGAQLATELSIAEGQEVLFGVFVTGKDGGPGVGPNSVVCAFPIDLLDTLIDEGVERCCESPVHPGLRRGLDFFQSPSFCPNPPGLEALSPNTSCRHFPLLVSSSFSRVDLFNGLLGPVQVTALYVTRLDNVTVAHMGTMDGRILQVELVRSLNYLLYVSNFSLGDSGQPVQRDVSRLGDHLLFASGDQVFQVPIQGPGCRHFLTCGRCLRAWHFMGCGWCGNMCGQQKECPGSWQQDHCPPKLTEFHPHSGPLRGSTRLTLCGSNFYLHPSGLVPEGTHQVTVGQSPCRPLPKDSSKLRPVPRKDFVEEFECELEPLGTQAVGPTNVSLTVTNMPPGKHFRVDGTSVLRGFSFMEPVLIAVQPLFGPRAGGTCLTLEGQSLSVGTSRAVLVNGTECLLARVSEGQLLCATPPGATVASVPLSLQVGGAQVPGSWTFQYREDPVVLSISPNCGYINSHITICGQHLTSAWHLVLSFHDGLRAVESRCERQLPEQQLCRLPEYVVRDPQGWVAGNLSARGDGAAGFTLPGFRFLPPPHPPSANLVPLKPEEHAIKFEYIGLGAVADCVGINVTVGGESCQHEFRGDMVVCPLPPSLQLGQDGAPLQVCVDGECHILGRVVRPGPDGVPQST

[2] = biological target: T1, Mammalian expressed extracellular human …; test: KinExA, RON-HIS
[3] = biological target: T1, Mammalian expressed extracellular human …; test: KinExA, RON-HIS; 95% Confidence Level 167.21 pM to 304.60 pM
Experimental: (§1) Mammalian produced recombinant extracellular His-tag RON protein was used for affinity measurements. Affinity determinations were carried out in the fixed antigen format. Antibodies were titrated as two-fold dilutions into a fixed concentration of RON antigen. RON protein was detected using mouse monoclonal to 6×His-Tag (Dylight@650, Thermo Fisher). All affinity measurements were carried out using the KinExa 4000 (Sapidyne Instruments).

[4] = biological target: T1, Mammalian expressed extracellular human …; test: KinExA, apparent Kd, column 'Kd by Kinexa (nM)' [continued]
Experimental: Titration curves were generated using indicated fixed concentrations of extracellular RON antigens measured by calibration free concentration analysis (CFCA). Increasing concentrations of RON antibodies were titrated for measurement of binding. Apparent Kd values were determined from an average of the two curves and plotted in table shown.
This limitation of the SPR method for highly avid antibodies has been described previously and the use of kinetic exclusion assay has been proposed as a way to overcome this limitation allowing measurements in the sub nanomolar range. We employed the Kinetic Exclusion assay (KinEXa) method to measure the Kd values of all of the new antibodies using a fixed concentration of the recombinant mammalian expressed protein as the target antigen and a twelve-point dilution curve of each antibody. We dropped antibody 9F6, in this assay as it seemed less avid than the other antibodies in preliminary SPR binding assays. The remaining seven antibodies gave exactly accurate results in duplicate analysis (FIG. 6).
as §1

[5] = biological target: RON (Macrophage stimulating protein receptor), full length, on cells (human, UniProt Q04912 25-1400); test: cell-based or functional assay
[6] = biological target: T1, Mammalian expressed extracellular human …; test: KinExA, RON-HIS; 95% Confidence Level 8.64 nM to 18.70 nM
Experimental: as §1

[7] = biological target: T1, Mammalian expressed extracellular human …; test: KinExA, RON-HIS; 95% Confidence Level 2.68 x 105 to 3.10 x 105
[8] = biological target: T1, Mammalian expressed extracellular human …; test: KinExA, RON-HIS; 95% Confidence Level 92.36 pM to 219.67 pM
Experimental: as §1

[9] = biological target: T1, Mammalian expressed extracellular human …; test: KinExA, RON-HIS; 95% Confidence Level 2.30 x 106 to 2.74 x 106
[10] = biological target: T1, Mammalian expressed extracellular human …; test: KinExA, RON-HIS; 95% Confidence Level 448.10 pM to 200.01 pM
Experimental: as §1

[11] = biological target: T1, Mammalian expressed extracellular human …; test: KinExA, RON-HIS; 95% Confidence Level 2.24 x 106 to 4.45 x 106
[12] = biological target: T1, Mammalian expressed extracellular human …; test: KinExA, RON-HIS; 95% Confidence Level 1.05 x 105 to 1.61 x 105
[13] = biological target: T1, Mammalian expressed extracellular human …; test: KinExA, RON-HIS; 95% Confidence Level 1.74 nM to 4.11 nM
Experimental: as §1

[14] = biological target: T1, Mammalian expressed extracellular human …; test: KinExA, RON-HIS; 95% Confidence Level 5.94 nM to 11.84 nM
Experimental: as §1

[15] = biological target: T1, Mammalian expressed extracellular human …; test: KinExA, RON-HIS; 95% Confidence Level 2.55 x 105 to 2.81 x 105

B2: chimeric 10G1 (mouse Fab with human Fc backbone) (antibody, V domains shown)
VH: EVKLEQSGGGLVQPGGSRKLSCAASGFTFSSFGMHWVRQAPEKGLEWVAYISGGSGTFYYADTVKGRFTISRDNPKNTLFLQMTSLRSEDTAIYYCARSTTVLDYWGQGTTLTVSS
VL: DIVLTQTPSSMYAFLGERVTIICKASQDINNYLNWVQQKPGKAPKTLIYHADRLADGVPSRFSGSGSGQDYSLTISSLEYEDMGIYYCLQYDDFPPFTFGSGTKLEIK
- EC50 of antibody dependent cellular cytotoxicity (xCELLigence, T47D targets, human NK cells, E:T 10:1) [5]: 0.003 nM

B4: 3F8 (antibody, V domains shown)
VH: EVKLQESGGGLVQPGRSLKLSCVASGFTFSSFWMHWVRQSPEKGLEWVAEIRLKSNNYATHYAESVKGRFTISRDDSKSSVHLQMNNLRTEDTGIYYCIPPYYYTVDYWGQGTSVTVSS
VL: DIVLTQTPKVMSTSVGDRVSVTCKASQNVNTNVAWYQQKPGQSPKALIYSASSRYSGVPDRFTGSGSGTDFTLTISNVQSEDLADYFCQQYNTYPLTFAAGTKLELK
notes: Mouse monoclonal antibody from a hybridoma; kappa light chain; also called Antibody 3F8; anti-RON antibody 3F8
- koff [2]: 0.000358 s⁻¹
- Kd [8]: 0.146 nM
- kon [9]: 2.44e+06 M⁻¹ s⁻¹
- Kd [4]: 0.15 nM

B5: 3G4 (antibody, V domains shown)
VH: EVQLQESGPELVKPGTSVRISCKASGYTFTSYYMHWVKQRPGQGLEWIGYIYPGNVNTKYNEKFKGKATLTADKSSSTAYMQLSSLTSEDSAVYFCARLGYYRYGGAMDYWGQGTAVTVSS
VL: DIVLTQTPAILSVSPGERVSFSCRASQSIGTSIHWYQQRTNGSPRLLIKYASESISGIPSRFSGSGSGTDFTLRINSVESEDLADYYCQQSDSWPTTFGGGTKLEIKR
notes: Mouse monoclonal antibody from a hybridoma (supernatant or purified); kappa light chain; also called Antibody 3G4; anti-RON antibody 3G4
- koff [2]: 0.000968 s⁻¹
- IC50 of inhibition of MSP induced ERK phosphorylation (AlphaLISA SureFire p-ERK, T47D cells) [5]: 68 nM
- Kd [10]: 0.305 nM
- kon [11]: 3.18e+06 M⁻¹ s⁻¹
- Kd [4]: 0.3 nM

B8: 6A9 (antibody, V domains shown)
VH: EVKLEESGPGLLKPSQSLSLTCTVTGSSITSDYAWNWIRQFPGNKLEWMGYIGYSVGTSHNPSLKGRISITRDTSKNQFFLHLNSVTTEDTAIYYCARRPLYFYYAMDFWGQGTSVTVSS
VL: DIVLTQSPSSLSASLGDRVTITCRASQDISKYLNWYQQKPDGTVKLLIYYTSTLHSGVPSRFSGSGSGTDFSLTITNLEQEDIATYFCQQGNTLPRTFGGGTKLEIK
notes: Mouse monoclonal antibody from a hybridoma; kappa light chain; also called Antibody 6A9; anti-RON antibody 6A9
- koff [2]: 0.00228 s⁻¹
- Kd [14]: 8.57 nM
- kon [15]: 266000 M⁻¹ s⁻¹
- Kd [4]: 8.6 nM

Next, values leading:

- kon [1]: 1.25e+06 M⁻¹ s⁻¹
- koff [2]: 0.000286 s⁻¹
- Kd [3]: 0.23 nM
- Kd [4]: 0.23 nM
B1: 7H11 (antibody, V domains shown)
VH: EVKLEQSGPELVKPGASVKISCKASGYTFTDYNMHWVRQPPGQSLEWIGFIYPYNGNSGYNPNFKTKATLTMDISSSTAYMEVRNLTSEDSATYFCASLYYLGYFDVWGAGTTVTVSS
VL: DIVLTQSPVSLAVSLGQRATISCRASKSVSTSAYNFMHWYQQKPGQPPKLLIYLASNLESGVPARLSGSGSGTDFTLNIHPVEEEDAATYYCQHSRELPYTFGGGTKLEIKR
notes: Mouse monoclonal antibody from a hybridoma; kappa light chain; also called Antibody 7H11; anti-RON antibody 7H11

- Kd [6]: 13.4 nM
- Kd [4]: 13.4 nM
- kon [7]: 270000 M⁻¹ s⁻¹
B3: 3F6 (antibody, V domains shown)
VH: EVKLEESGPGLVKPSQSLSLTCSVTGYSITSGYYWNWIRQFPGNKLEWMGFMSYDGSNNYNPSLKNRISITRDTSKNQFFLKLNSVTSEDTATYYCSRALAYYGNFDYWGQGTTLTVSS
VL: DIVLTQTPSSLSASLGDRVTISCSASQDISNYLNWYQQKPDGIVKLLIYYTSSLHSGVPSRFSGSGSGTDFSLTISNLEPEDIATYYCQQYNKLPWTFGGGTKLEIK
notes: Mouse monoclonal antibody from a hybridoma; kappa light chain; also called anti-RON antibody 3F6

- koff [2]: 0.00353 s⁻¹
- kon [12]: 129000 M⁻¹ s⁻¹
- Kd [13]: 2.74 nM
- Kd [4]: 2.7 nM
B6: 9F2 (antibody, V domains shown)
VH: QVKLQQSGPGLVAPSQSLSITCTVSGFSLTSYGVHWVRQPPGKGLEWLGVIWAGGTTNYNSALMSRLSISKDNSKSQVFLKMNSLQTDDTAMYYCASYDYDGYFDVWGAGTTVTVSS
VL: DIVLTQTTAIMSASPGEKVTMTCSASSSVSYIHWYQQKSSTSPKLWIYDTSKLASGVPGRFSGSGSGNSYSLTISSMEAEDVATYYCFQGNKYPLTFGAGTKLELK
notes: Mouse monoclonal antibody from a hybridoma; kappa light chain; also called Antibody 9F2; anti-RON antibody 9F2

- IC50 of inhibition of MSP induced ERK phosphorylation (AlphaLISA SureFire p-ERK, T47D cells) [5]: 14.9 nM
B7: Narnatumab (antibody, V domains shown)
VH: EVQLVESGGGLVQPGGSLRLSCAASGFTFSSYLMTWVRQAPGKGLEWVANIKQDGSEKYYVDSVKGRFTISRDNAKNSLNLQMNSLRAEDTAVYYCTRDGYSSGRHYGMDVWGQGTTVIVSS
VL: EIVLTQSPATLSLSPGERATLSCRASQSVSRYLAWYQQKPGQAPRLLIYDASNRATGIPARFSGSGSGTDFTLTISSLEPEDFAVYYCQQRSNWPRTFGQGTKVEIK
